The text below walks through data of patent US8778635B2, “Thermostable proteins and methods making and using thereof” (Becton, Dickinson and Company, priority 2006, dated 2014).

A short description of data set [1]: Circular dichroism melting temperature (Tm), CD signal at 222 nm versus temperature. Format: physicochemical. Here is the method:
Circular Dichroism (CD) spectra were preformed on a JASCO J-810. Samples of purified fluorophore-labeled proteins were exhaustively dialyzed into phosphate buffered saline (PBS) (comprised of 137 mM NaCl, 10 mM phosphate and 2.7 mM KCl, pH 7.4). The loss of secondary structure of 3M-GGBP and W183C-GGBP was observed by recording the CD signal at 222 nm as a function of temperature. During the experiment, the temperature of the sample changed at a rate of ˜1° C./min between 20 and 80° C. The apparent melting temperature at the midpoint of the transition (Tm) was obtained by fitting the experimental data points (CD signal versus temperature) with a sigmoidal function.

The nature of data set [2]: Fluorescence assay of glucose binding (glucose titration, Kd and fluorescence response). The protocol:
Dye-protein fluorophore (N,N′-dimethyl-N-(iodoacetyl)-N′-(7-nitrobenz-2-oxa-1,3-diazol-4-yl)ethylenediamine designated IANBD) or acrylodan coupling was performed as described by the manufacturer (Molecular Probes).
Briefly, 0.5 ml of 3M-GGBP (1-2 mg/ml) was treated with 2.5 molar excess of dithiothreitol for 30 min. A10-fold molar excess solution of IANBD in DMSO (0.5 mg/100 uL) was then added. While protected from light, the protein and dye were gently mixed for 4 h at 25° C. before the unreacted dye was removed by Nap-5 column chromatography (Amersham Biosciences).
Binding constants were determined by titration of increasing concentrations of glucose into a 0.1 μM protein in PBS and monitoring the change in fluorescence. The Kd was determined from the following relationships as adapted from Pisarchick and Thompson (Pisarchick, M. L. and Thompson, N. L. Biophys. J. (1990), 58, 1235-1249):
[formula] where F is fluorescence intensity, Finf is fluorescence at infinity, F0 is fluorescence at zero
[formula] where [Glc]free is the concentration of free glucose and [Glc]tot and [Prot]tot are the total concentrations of glucose and protein, respectively. For the SM4, the ratio of the area under the fluorescence curve from 514-540 nm to the area under the curve at 450-470 nm was used in place of fluorescence intensity in the equations above. […]

Data set [3] in a line: Storage stability of purified / labeled protein. The class given is physicochemical. The settings on record: acrylodan-labeled. The protocol:
The modified GGBP were expressed from E. coli strain Sg13009 following standard protocols (Qiagen). After induction, bacteria were lysed using Bugbuster protein extraction reagent (Novagen) and purified by IMAC using Talon cobalt^2+ resin (Clontech). The purified protein in solution was filtered through 100 kDa cutoff filter and then concentrated using a 10 kDa cutoff filter (Millipore). The protein (1-2 mg/ml) was dialyzed at 4° C. into a solution containing 1M NaCl, 10 mM Tris-HCl, and 50 mM NaPO4 (pH 8) and stored at 4° C. Under these conditions the protein was active for at least six months. The yield from the purification was approximately 10 mg/l.
After labeling with acrylodan the SM4 was transferred to a buffer for frozen storage. The protein was dialyzed against a solution of 0.01M MES, 30 mM glucose (pH 5.5-5.7) for 24 h with three changes of buffer. After dialysis the protein was quantified and diluted to a 100 μM solution using the same buffer. The vials were then placed directly into a −70° C. freezer for storage. The protein is stable for at least 3 months under these conditions.
To lyophilize the SM4 protein, the protein solution was dialyzed against ammonium bicarbonate (50 mM, pH 7) for 24 h with three changes of buffer. The protein was passed through a 0.2 um Supor filter (Pall) and was aliquoted into amber vials (2 mg/vial). […]

As to “W183C-acrylodan: reference W183C-GGBP labeled with acrylodan”, in data set [1] (Tm determined in PBS, fluorophore-labeled protein), the “Tm*” value is given as 39.8 ± 2%. The Kd in data set [2] (glucose titrated into 0.1 μM protein in PBS) worked out at 19.6 ± 10%. The “Fluorescent Response” value in data set [2] (glucose, labeled protein) is listed as 3.4 ± 8%.

B1: W183C(1, 3, 5, 10): W183C (SEQ ID NO:4) with N39I, G82E, Q83K, N84D, Q175E, Q177H, L178M, N259E and N260S (protein)
chain: ADTRIGVTIYKYDDNFMSVVRKAIEQDAKAAPDVQLLMIDSQNDQSKQNDQIDVLLAKGVKALAINLVDPAAAGTVIEKAREKDVPVVFFNKEPSRKALDSYDKAYYVGTDSKESGIIQGDLIAKHWAANQGWDLNKDGQIQFVLLKGEPGHPDAEARTTYVIKELNDKGIKTEELHMDTAMCDTAQAKDKMDAWLSGPNANKIEVVIANNDAMAMGAVEALKAHNKSSIPVFGVDALPEALALVKSGALAGTVLNDAESQAKATFDLAKNLADGKGAADGTNWKIDNKVVRVPYVGVDKDNLAEFSKK
With B1, in data set [1] (FIG. 1, protocol of Example 2), the “Tm greater than that of the reference protein (W183C)” value is “about 9.4 °C”. The melting temperature entry in data set [1] (without the termini additions present, in PBS) was “about 55.4 °C”. Further, the “time the protein is stable, frozen storage” value in data set [3] (100 μM in 0.01M MES, 30 mM glucose (pH 5.5-5.7), −70° C.) was “at least 3 months”. Besides, the “time the protein is stable, lyophilized” value in data set [3] (lyophilized from ammonium bicarbonate (50 mM, pH 7)) is “at least 6 months”.
